Measurements taken from patent US20240342305A1 (published 2024).

Legend:
[1] = target: T1, His-tagged human GPC3 recombinant protein (purchased from Shanghai Rui Jin Biotech Co., Ltd.) (human, UniProt P51654 25-559, limits assumed); test: flow cytometry of CAR T cells stained with His-tagged human GPC3 (50 ug/ml), anti-His-tag antibody and FITC secondary
T1 construct: Bought; construct not described; not shown: His tag
Description: Infected CTL cells were detected by flow cytometry on day 8 of culture for the expression of different chimeric antigen receptors. FACS assays were performed using His-tagged human GPC3 recombinant protein (purchased from Shanghai Rui Jin Biotech Co., Ltd.); the cells were firstly incubated with the protein (50 ug/ml) for 1 hr, washed twice with D-PBS, and Anti-His-tag antibody (1:50 dilution, purchased from Shanghai Reagent Biotechnology Co., Ltd.) was added and incubated for 1 hr and then washed twice with D-PBS and then FITC labeled goat anti-mouse secondary antibody (Shanghai Kangcheng Biotechnology Co., Ltd.), incubated for 50 min, washed with D-PBS for three times, and tested by FACS. Uninfected T lymphocytes was used as a negative control, the positive rates of virus-infected T cells expressing different chimeric antigen receptors are shown in Table 4.

[2] = target: GPC3 expressed on hepatoma cells (HepG2, Huh-7, SK-Hep-1 GPC3) (human, UniProt P51654 25-554); test: cell-based or functional assay
[3] = target: T2, human GPC3 recombinant protein (purchased from Shanghai Rui Jin Biotechnology Co., Ltd.) (human, UniProt P51654 25-559, limits assumed); test: single phage ELISA, GPC3 coated 100 ng/well
T2 construct: Bought recombinant protein; also called huGPC3; antigen GPC3
Description: (§1) 96 clones were randomly selected in the clones obtained from the fourth round of screening and their binding capability to human GPC3 was analyzed by single phage ELISA (enzyme-linked immunosorbent assay). For this purpose, each single colony was inoculated in 300 μl of 2×YT/ampicillin medium (containing 2% glucose) in a 96-well deep-well plate and cultured with shaking at 37° C. and 250 rpm for 16 hours. 20 μl of culture was inoculated into 500 μl of 2×YT/ampicillin medium (containing 0.1% glucose) and shaken at 37° C. and 250 rpm for 1.5 hours. To prepare the helper phage solution, 75 μl of M13KO7 (titer of 3×10¹² pfu/ml) was taken and mixed into 15 ml of 2×YT medium and added into a culture plate at 50 μl/well, and incubated at 37° C. and 150 rpm for 30 minutes. And then prepared kanamycin solution (180 μl of 50 mg/ml kanamycin was taken and added into 15 ml of 2×YT medium) was added at 50 μl/well and incubated with shaking for 16 hours at 37° C. and 250 rpm. Finally, cells were precipitated by centrifugation (30 mins, 5000×g, 4° C.) and the supernatant was transferred to a new 96-well deep-well plate.
(§2) For single phage ELISA, 100 ng/well of antigen GPC3 and negative control protein BSA (100 μl/well) were used in a 96-well MediSorp ELISA plate (purchased from Nunc) and coated overnight at 4° C. […] Extinction values were measured at 450 nm with an enzyme-linked immunosorbent (Bio-Rad).

[4] = target: T3, BSA (bovine serum albumin), negative control protein (bovine, UniProt P02769 25-607); test: single phage ELISA, BSA coated 100 ng/well
T3 construct: Coated as negative control in the single phage ELISA
T3 sequence (P02769 25-607 limits assumed): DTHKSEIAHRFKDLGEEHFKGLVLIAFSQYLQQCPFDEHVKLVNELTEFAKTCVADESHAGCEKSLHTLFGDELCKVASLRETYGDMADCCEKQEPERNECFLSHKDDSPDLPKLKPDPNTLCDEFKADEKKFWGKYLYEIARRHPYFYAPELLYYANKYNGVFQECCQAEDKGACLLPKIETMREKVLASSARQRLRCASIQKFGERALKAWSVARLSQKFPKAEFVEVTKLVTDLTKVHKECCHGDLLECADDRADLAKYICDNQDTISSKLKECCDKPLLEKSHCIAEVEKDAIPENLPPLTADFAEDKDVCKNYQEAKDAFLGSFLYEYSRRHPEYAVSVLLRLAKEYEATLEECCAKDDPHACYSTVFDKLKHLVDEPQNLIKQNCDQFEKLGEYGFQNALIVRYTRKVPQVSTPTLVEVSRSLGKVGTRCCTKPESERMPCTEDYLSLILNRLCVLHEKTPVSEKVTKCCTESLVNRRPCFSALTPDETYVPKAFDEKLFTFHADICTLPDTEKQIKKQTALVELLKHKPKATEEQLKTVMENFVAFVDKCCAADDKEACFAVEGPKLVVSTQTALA
Description: as §1, §2

B1: chimeric antigen receptor P7D4-BBZ (P7D4 scFv-CD8-CD137-CD3 zeta), on T cells (other)
chain: QVQLQESGGGLVQPGRSLRLSCAASGFTFSSYAMHWVRQAPGKGLEWVSAISGSGGSTYYADSVKGRFTISRDNSKNTLYLQMNSLRAEDTAVYYCAKDRRGSHADAFDVWGQGTLVTVSSGGGGSGGGGSGGGGSQSALTQPPSASGSPGQSVTISCTGTSSDVGGYNYVSWYQQYPGKAPKLLIYGNSNRPSGVPDRFSGSKSGTSASLAITGLQAEDGADYYCQSYDSSLRVVFGGGTKVTVLGTTTPAPRPPTPAPTIASQPLSLRPEACRPAAGGAVHTRGLDFACDIYIWAPLAGTCGVLLLSLVITLYCKRGRKKLLYIFKQPFMRPVQTTQEEDGCSCRFPEEEEGGCELRVKFSRSADAPAYKQGQNQLYNELNLGRREEYDVLDKRRGRDPEMGGKPRRKNPQEGLYNELQKDKMAEAYSEIGMKGERRRGKGHDGLYQGLSTATKDTYDALHMQALPPR
notes: Second generation CAR on human T cells; also called P7D4 scFv-BBZ
- Positive rate of T cells transfection [1]: 53%
- Cytotoxicity (%) on HepG2 cells, effector target ratio 1:1 (LDH release, 18 h) [2]: 38.6%
- Cytotoxicity (%) on HepG2 cells, effector target ratio 1:3 (LDH release, 18 h) [2]: 13.9%
- Cytotoxicity (%) on HepG2 cells, effector target ratio 3:1 (LDH release, 18 h) [2]: 71.3%
- Cytotoxicity (%) on HuH-7 cells, effector target ratio 1:1 (LDH release, 18 h) [2]: 32.2%
- Cytotoxicity (%) on HuH-7 cells, effector target ratio 1:3 (LDH release, 18 h) [2]: 10.2%
- Cytotoxicity (%) on HuH-7 cells, effector target ratio 3:1 (LDH release, 18 h) [2]: 69.2%

B2: single chain antibody P7D4 (phage-displayed scFv) (scFv)
scFv: QVQLQESGGGLVQPGRSLRLSCAASGFTFSSYAMHWVRQAPGKGLEWVSAISGSGGSTYYADSVKGRFTISRDNSKNTLYLQMNSLRAEDTAVYYCAKDRRGSHADAFDVWGQGTLVTVSSGGGGSGGGGSGGGGSQSALTQPPSASGSPGQSVTISCTGTSSDVGGYNYVSWYQQYPGKAPKLLIYGNSNRPSGVPDRFSGSKSGTSASLAITGLQAEDGADYYCQSYDSSLRVVFGGGTKVTVLG
notes: Tested as single phage (M13, phagemid pCantab 5E) culture supernatant in ELISA
- binding result [3]: binds
- binding result [4]: no binding

B3: single chain antibody P1B12E (phage-displayed scFv) (scFv)
scFv: QVQLVESGAEVKKPGASVKVSCKASGGTFSSYAISWVRQAPGQGLEWMGGIIPIFGTANYAQKFQGRVTITADESTSTAYMELSSLRSEDTAVYYCAKSPFSGTPGEYWGRGTLVTVSSGGGGSGGGGSGGGGSEIVLTQSPGTLSLSPGERATLSCRASQSVSSNYLAWYQQKPGQAPRLLIYGASRRATGIPDRFSGSGSGTDFTLTISRVEPEDFAVYHCQQYGASPKTFGQGTKLEIKR
notes: Tested as single phage (M13, phagemid pCantab 5E) culture supernatant in ELISA; the phage coat fusion is not described
- binding result [3]: binds
- binding result [4]: no binding

B4: chimeric antigen receptor P7D4-δZ (P7D4 scFv-CD8-CD3δzeta), on T cells (other)
chain: QVQLQESGGGLVQPGRSLRLSCAASGFTFSSYAMHWVRQAPGKGLEWVSAISGSGGSTYYADSVKGRFTISRDNSKNTLYLQMNSLRAEDTAVYYCAKDRRGSHADAFDVWGQGTLVTVSSGGGGSGGGGSGGGGSQSALTQPPSASGSPGQSVTISCTGTSSDVGGYNYVSWYQQYPGKAPKLLIYGNSNRPSGVPDRFSGSKSGTSASLAITGLQAEDGADYYCQSYDSSLRVVFGGGTKVTVLGTTTPAPRPPTPAPTIASQPLSLRPEACRPAAGGAVHTRGLDFACDIYIWAPLAGTCGVLLLSLVITRVKFSRSADAPA
notes: Chimeric antigen receptor on lentivirus-infected human T cells; negative control without ITAM; also called P7D4-8Z; P7D4 scFv-δZ
- Positive rate of T cells transfection [1]: 59%
- Cytotoxicity (%) on HepG2 cells, effector target ratio 1:1 (LDH release, 18 h); signalling-dead negative control CAR [2]: 2.5%
- Cytotoxicity (%) on HepG2 cells, effector target ratio 1:3 (LDH release, 18 h); signalling-dead negative control CAR [2]: 3.2%
- Cytotoxicity (%) on HepG2 cells, effector target ratio 3:1 (LDH release, 18 h); signalling-dead negative control CAR [2]: 4.8%
- Cytotoxicity (%) on HuH-7 cells, effector target ratio 1:1 (LDH release, 18 h); signalling-dead negative control CAR [2]: 1.3%
- Cytotoxicity (%) on HuH-7 cells, effector target ratio 1:3 (LDH release, 18 h); signalling-dead negative control CAR [2]: 5.3%
- Cytotoxicity (%) on HuH-7 cells, effector target ratio 3:1 (LDH release, 18 h); signalling-dead negative control CAR [2]: 3.2%
